Patent publication US20180086832A1 (Johns Hopkins, published 2018)

Assays:
EGFR(WT)-HLA-A3 = target: T1, EGFR(WT)-HLA-A3 (human); assay: off-rate ELISA on monomer-coated strips, 22 C
T1 construct: also called EGFR(WT) peptide-pulsed T2A3 cells

KRAS(WT)-HLA-A3 [1] = target: T2, KRAS(WT)-HLA-A3 (human, biotinylated in the recombinant monomer (site not stated)); assay: flow cytometry, T2A3 cells pulsed with the KRAS(WT) control peptide
T2 construct: Monomer in ELISA; also called KRAS(WT)-HLA-A3 monomer; KRAS(WT) control peptide on T2A3 cells

KRAS(WT)-HLA-A2 [2] = target: T3, KRAS(WT)-HLA-A2 (human, biotinylated in the recombinant monomer (site not stated)); assay: ELISA on monomers, anti-human IgG
T3 construct: Monomer in ELISA and off-rate assays; on pulsed T2 cells in flow cytometry and CDC; also called KRAS(WT)-HLA-A2 monomer; KRAS(WT) peptide-pulsed T2 cells

KRAS(WT)-HLA-A2 [3] = target: T3, KRAS(WT)-HLA-A2; assay: flow cytometry, peptide-pulsed T2 cells
[4] = target: T4, ELA control peptide on HLA-A2 (human); assay: flow cytometry, peptide-pulsed T2 cells
T4 construct: ELA-pulsed T2 cells; also called negative HLA-A2 control peptide ELA; irrelevant peptide

KRAS(WT)-HLA-A2 [5] = target: T3, KRAS(WT)-HLA-A2; assay: off-rate ELISA on monomer-coated strips
KRAS(WT)-HLA-A2 [6] = target: T3, KRAS(WT)-HLA-A2; assay: phage ELISA after affinity maturation
KRAS(WT)-HLA-A3 [7] = target: T2, KRAS(WT)-HLA-A3; assay: ELISA of purified scFv on monomers, anti-Flag

B1: purified C9 scFv (scFv)
scFv: DIQMTQSPSSLSASVGDRVTITCRASQDVNTAVAWYQQKPGKAPKLLIYSASFLYSGVPSRFSGSRSGTDFTLTISSLQPEDFATYYCQQYYSYPPTFGQGTKVEIKRTGGGSGGGGSGGGASEVQLVESGGGLVQPGGSLRLSCAASGFNITSSYIHWVRQAPGKGLEWVAYISPEDGYARHADSVKGRFTISADTSKNTAYLQMNSLRAEDTAVYYCSRDDTYYYSAMDVWGQGTLVTVSS
notes: not shown: Flag and His tags
B1 gave a koff (EGFR(WT)-HLA-A3) of 3e-05 s⁻¹.

B2: phage clone C9 (scFv, not shown: large carriers)
scFv: DIQMTQSPSSLSASVGDRVTITCRASQDVNTAVAWYQQKPGKAPKLLIYSASFLYSGVPSRFSGSRSGTDFTLTISSLQPEDFATYYCQQYYSYPPTFGQGTKVEIKRTGGGSGGGGSGGGASEVQLVESGGGLVQPGGSLRLSCAASGFNITSSYIHWVRQAPGKGLEWVAYISPEDGYARHADSVKGRFTISADTSKNTAYLQMNSLRAEDTAVYYCSRDDTYYYSAMDVWGQGTLVTVSS
notes: also called C9 phage
B2: no binding (KRAS(WT)-HLA-A3 [1]).

B3: D10 MANAbody (antibody, V domains shown)
VH: EVQLVESGGGLVQPGGSLRLSCAASGFNINGSYIHWVRQAPGKGLEWVAYIDPETGYSRYADSVKGRFTISADTSKNTAYLQMNSLRAEDTAVYYCSRDSASDAMDVWGQGTLVTVSS
VL: DIQMTQSPSSLSASVGDRVTITCRASQDVNTAVAWYQQKPGKAPKLLIYSASFLYSGVPSRFSGSRSGTDFTLTISSLQPEDFATYYCQQYYYYPPTFGQGTKVEIK
notes: Complete bivalent antibody made in Expi293 cells; also called full-length D10 MANAbody; D10 antibody
B3: no binding (tested: 1 µg/mL (top of the dilution series)) (KRAS(WT)-HLA-A2 [2]).

B4: KRAS G12V_F10 AM#1 (scFv)
scFv: DIQMTQSPSSLSASVGDRVTITCRASQDVNTAVAWYQQKPGKAPKLLIYSASFLYSGVPSRFSGSRSGTDFTLTISSLQPEDFATYYCQQYYYYPPTFGQGTKVEIKRTGGGSGGGGSGASEVQLVESGGGLVQPGGSLRLSCAASGFNINSNYIHWVRQAPGKGLEWVAYITPETGYYHYADSVKGRFTISADTSKNTAYLQMNSLRAEDTAVYYCSRNYYSAYAMDVWGQGTLVTVSS
B4: no binding (KRAS(WT)-HLA-A2 [3]).

B5: KRAS G12V_F10 AM#2 (scFv)
scFv: DIQMTQSPSSLSASVGDRVTITCRASQDVNTAVAWYQQKPGKAPKLLIYGASFLYSGVPSRFSGSRSGTDFTLTISSLQPEDFATYYCQQYYYYPPTFGQGTKVEIKRTGGGSGGGGSGASEVQLVESGGGLVQPGGSLRLSCAASGFYINSNYIHWVRQAPGKGLEWVAYITPETGYYHYADSVKGRFTISADTSKNTAYLQMNSLRAEDTAVYYCSRNYYSAYAMDVWGQGTLVTVSS
B5: no binding (KRAS(WT)-HLA-A2 [3]).

B6: KRAS G12V_F10 AM#3 (scFv)
scFv: DIQMSQSPSSLSASVGDRVTITCRTSQDANTAVAWYQQKPGKAPKLLFYSASFLFSGVPSRFSGSRSGTDFTLTISSLQPEDFATYYCQQYYYYPPTFGQGTKVEIKRTGGGSGGGGSGASEVQLVESGGGLVQPGGSLRLSCAASGFNINSNYIHWVRQAPGKGLEWVAYITPETGYYRYADSVKGRFTISADTSKNTAYLQMNSLRAEDTAVYYCSRNYYSAYAMDVWGQGTLVTVSS
B6: no binding (KRAS(WT)-HLA-A2 [3]).

B7: D3E6 phage (scFv)
scFv: DIQMTQSPSSLSASVGDRVTITCRASQDVNTAVAWYQQKPGKAPKLLIYSASFLYSGVPSRFSGSRSGTDFTLTISSLQPEDFATYYCQQYYYYPPTFGQGTKVEIKRTGGGSGGGGSGGGASEVQLVESGGGLVQPGGSLRLSCAASGFNISTSYIHWVRQAPGKGLEWVATIDPNDGYSRYADSVKGRFTISADTSKNTAYLQMNSLRAEDTAVYYCSRTNNTAADAMDVWGQGTLVTVSS
notes: also called EGFR T790M clone 1; not shown: myc tag, TEV cleavage site and full length M13 pIII coat protein
B7: no binding [4].

B8: purified D10-7 scFv (scFv, not shown: small tags and cut ends)
scFv: DIQMTQSPSSLSASVGDRVTIACRASQDVNTAVAWYQQKPGKAPKLLIYSASFLYSGVPSRFSGSRSGTDFTLTISSLQPEDFATYYCQQYYYYPPTFGQGTKVEIKRTGGGSGGGGSGGGASEVQLVESGGGLVQPGGSLRLSCAASGFHINGSYIHWVRQAPGKGLKWVAYIDPETGYSRYADSVKGRFAISADMSKNTAYLQMNSLRAEDTAVYYCSRDSASDAMDVWGQGTLVTVSS
notes: conjugated to an anti-V5 antibody in the CDC assay
B8: no binding (KRAS(WT)-HLA-A2 [5]).

B9: clone D10-7 (phage, as tested by ELISA in the affinity maturation) (scFv)
scFv: DIQMTQSPSSLSASVGDRVTIACRASQDVNTAVAWYQQKPGKAPKLLIYSASFLYSGVPSRFSGSRSGTDFTLTISSLQPEDFATYYCQQYYYYPPTFGQGTKVEIKRTGGGSGGGGSGGGASEVQLVESGGGLVQPGGSLRLSCAASGFHINGSYIHWVRQAPGKGLKWVAYIDPETGYSRYADSVKGRFAISADMSKNTAYLQMNSLRAEDTAVYYCSRDSASDAMDVWGQGTLVTVSS
notes: One of eight clones from the error-prone PCR library of D10; not shown: phage display fusion partner used at AxioMx is not described
B9: no binding (KRAS(WT)-HLA-A2 [6]).

B10: purified D10 scFv (scFv, not shown: small tags and cut ends)
scFv: DIQMTQSPSSLSASVGDRVTITCRASQDVNTAVAWYQQKPGKAPKLLIYSASFLYSGVPSRFSGSRSGTDFTLTISSLQPEDFATYYCQQYYYYPPTFGQGTKVEIKRTGGGSGGGGSGGGASEVQLVESGGGLVQPGGSLRLSCAASGFNINGSYIHWVRQAPGKGLEWVAYIDPETGYSRYADSVKGRFTISADTSKNTAYLQMNSLRAEDTAVYYCSRDSASDAMDVWGQGTLVTVSS
notes: Flag/His form in ELISA, AlphaScreen and off-rate assays; V5/His form in cell staining and, conjugated 2:1 to an anti-V5 mouse antibody, in the CDC assay
B10: no binding (tested: 1 µg/mL (top of the dilution series)) (KRAS(WT)-HLA-A3 [7]).
